{"source": "paper PMC7138851", "about": "“Quantitative assessment of the determinant structural differences between redox-active and inactive glutaredoxins” (Nature Communications, 2020)", "proteins": {"B1": {"name": "ScGrx7 (Saccharomyces cerevisiae S288C) (protein)", "chain": "SVNESITTHHPDSLVTFDNSGNAPGTHQSVHDTVNTQDKEAEEVDKNSGDAEFDAAAEYNKIMEQSPMIVFSKTGCPYSKKLKALLTNSYTFSPSYYVVELDRHEHTKELQDQIEKVTGRRTVPNVIIGGTSRGGYTEIAELHKNDELLDSFKKWSDGAFTVKANSQSESA", "notes": "E. coli XL1-Blue, pQE30; N-terminal MRGS(H)6 tag"}}, "experiment_in_all_cases": "purified protein, by the assay type", "set-up_in_all_cases": "GSSCys oxidoreductase assay, steady-state kinetics, coupled NADPH consumption at 340 nm, pH 8.0, 25 °C", "settings_in_all_cases": "pH 8.0; 25.0 °C", "key": {"[1]": {"substrate": "N[C@@H](CCC(=O)N[C@@H](CS)C(=O)NCC(=O)O)C(=O)O", "method": "(§1) Steady-state kinetics of wild-type and mutant ScGrx7 and HsGrx5^C122S in the GSSCys and [compound left out] assays were determined spectrophotometrically by monitoring the consumption of NADPH at 340 nm and 25 °C using a thermostated Jasco V-650 UV/vis spectrophotometer[11],[19],[25]. Fresh stock solutions of NADPH, GSH, GR, and GSSCys or [compound left out] were prepared in assay buffer containing 0.1 M Tris/HCl, 1 mM EDTA, pH 8.0 before each experiment. Both assays were performed with 0.1 mM NADPH and 1 U/ml ScGR. The following final protein concentrations were used for Y110F/H/A (5–150 nM), D144A/K (10 nM), E147A/K (10 nM), R153A/E (25–50 nM), ScGrx7^WP (20 nM), ScGrx7^loop (up to 1.4 µM), ScGrx7^WP+loop (up 2.6 µM), HsGrx5^C122S (up to 15 µM), HsGrx5^RR (up to 12 µM), HsGrx5^loop (up to 1.6 µM), and HsGrx5^RR+loop (up to 4.0 µM). For the GSSCys assays, GSH was varied between 50 µM and 1.5 mM at fixed GSSCys concentrations (25, 50, 100, and 150 µM). NADPH, GSH, and GR were mixed in assay buffer before Grx was added and a baseline was recorded for 30 s. All GSSCys assays were started by the addition of GSSCys. The absorbance of a reference cuvette containing all components but no Grx was measured in parallel and subtracted from the obtained Grx activity. For the [compound left out] assays, GSH was varied between 100 µM and 2.0 mM at fixed concentrations of [compound left out] (0.18, 0.37, 0.55, and 0.74 mM). NADPH, GSH, and [compound left out] were preincubated in assay buffer for 2 min before GR was added and a baseline was recorded for 30 s. All [compound left out] assays were started by the addition of enzyme. Kinetic data were analyzed in Excel and SigmaPlot 13 by nonlinear and linear regression according to Michaelis–Menten, Lineweaver–Burk, Eadie–Hofstee, and Hanes theory[11],[19],[25]. 13 Supplementary Figure 7 Supplementary Figure 7 | GSSCys assay steady-state kinetics of ScGrx7 wild-type enzyme and D144X mutants. (a) Michaelis-Menten plots of the GSH-dependent reaction velocity at different initial concentrations of GSSCys. […]"}, "[2]": {"substrate": "N[C@@H](CCC(=O)N[C@@H](CSSC[C@H](N)C(=O)O)C(=O)NCC(=O)O)C(=O)O", "method": "as §1"}, "[3]": {"substrate": "N[C@@H](CCC(=O)N[C@@H](CS)C(=O)NCC(=O)O)C(=O)O", "method": "as §1", "remark": "listed apart in the source"}, "[4]": {"substrate": "N[C@@H](CCC(=O)N[C@@H](CS)C(=O)NCC(=O)O)C(=O)O", "method": "as §1", "remark": "listed apart in the source"}, "[5]": {"substrate": "N[C@@H](CCC(=O)N[C@@H](CS)C(=O)NCC(=O)O)C(=O)O", "method": "as §1", "remark": "listed apart in the source"}, "[6]": {"substrate": "N[C@@H](CCC(=O)N[C@@H](CSSC[C@H](N)C(=O)O)C(=O)NCC(=O)O)C(=O)O", "method": "as §1", "remark": "listed apart in the source"}}}
{"protein": "B1", "values": [{"measurement": "Km", "setting": "[1]", "result": 744, "unit": "µM"}, {"measurement": "kcat", "setting": "[1]", "result": 206, "unit": "s⁻¹"}, {"measurement": "Km", "setting": "[2]", "result": 257, "unit": "µM"}, {"measurement": "Km", "setting": "[3]", "result": "286 ± 45", "unit": "µM"}, {"measurement": "kcat", "setting": "[3]", "result": "79.9 ± 27", "unit": "s⁻¹"}, {"measurement": "kcat/Km", "setting": "[3]", "result": 273000, "unit": "M⁻¹ s⁻¹"}, {"measurement": "Km", "setting": "[4]", "result": "244 ± 27.1", "unit": "µM"}, {"measurement": "kcat", "setting": "[4]", "result": "68 ± 2.4", "unit": "s⁻¹"}, {"measurement": "kcat/Km", "setting": "[4]", "result": 279000, "unit": "M⁻¹ s⁻¹"}, {"measurement": "Km", "setting": "[5]", "result": "291 ± 17.6", "unit": "µM"}, {"measurement": "kcat", "setting": "[5]", "result": "75.2 ± 1.6", "unit": "s⁻¹"}, {"measurement": "kcat/Km", "setting": "[5]", "result": 258000, "unit": "M⁻¹ s⁻¹"}, {"measurement": "Km", "setting": "[6]", "result": "155 ± 29.9", "unit": "µM"}, {"measurement": "kcat", "setting": "[6]", "result": "114 ± 13", "unit": "s⁻¹"}, {"measurement": "kcat/Km", "setting": "[6]", "result": 735000, "unit": "M⁻¹ s⁻¹"}]}
